{"source": "patent US12698507B2", "about": "“Methods and compositions for conferring and/or enhancing herbicide tolerance using protoporphyrinogen IX oxidase of various cyanobacteria or variant thereof” (FarmHannong Co., Ltd., priority 2019, dated 2026)", "molecules": {"B1": {"name": "CyPPO19 V165S + F360T: variant of CyPPO19 PPO protein (SEQ ID NO: 1) (protein)", "chain": "MSEVDVAIVGGGLSGLSLAWRLQQSAPQYSVVLLEASDRLGGNITTQTAEGFVWELGPNSFAPTPALLQLIAEVGLQSELIRGDRHLPRYIYWRGQLYPLQPTRPLALATSNLLSPWGKVRAALGALGFVPPYLGSGDESVNSFFRRHLGQEVAERLVAPFVSGSYAGDPQQLSAAAAFRRIAQLEKLGGGLIAGALHLRRQQAPKPKPPTSVQMRPGELGSFKEGLAALPRAIAQQLKAPIHLQTPVQEITPDPKGGYLLRSGEQTWRARSVVLATPAYQTAELVAPFQPAIARVLATIPYPTVACVVLAYPAGLGRSVRPGFGVLIPRSQGIRTLGTIWSSCLFPQRTPAGWQVFTSTIGGATDPDLASLSEEAIVQQVQQDLNRLLDLPAAKARLLGMKVWRRAIPQYMVGYPEQWQQVTHALSQTPGLFLCSNYAEGVALGDRVEHGNRTAAAVAAYLSGGQP", "modifications": "Synthetic_PPO of Thermosynechococcus elongatus PKUAC-SCTE542 (comprising GenBank No. CP032152.1)"}, "B2": {"name": "CyPPO19 V305L + F360M: variant of CyPPO19 PPO protein (SEQ ID NO: 1) (protein)", "chain": "B1 chain with S165V, V305L, T360M", "modifications": "Synthetic_PPO of Thermosynechococcus elongatus PKUAC-SCTE542 (comprising GenBank No. CP032152.1)"}, "B3": {"name": "CyPPO19 V305M + F360I: variant of CyPPO19 PPO protein (SEQ ID NO: 1) (protein)", "chain": "B1 chain with S165V, V305M, T360I", "modifications": "Synthetic_PPO of Thermosynechococcus elongatus PKUAC-SCTE542 (comprising GenBank No. CP032152.1)"}, "B4": {"name": "CyPPO19 A167C + F360L: variant of CyPPO19 PPO protein (SEQ ID NO: 1) (protein)", "chain": "B1 chain with S165V, A167C, T360L", "modifications": "Synthetic_PPO of Thermosynechococcus elongatus PKUAC-SCTE542 (comprising GenBank No. CP032152.1)"}, "B5": {"name": "CyPPO19 A167C + F360V: variant of CyPPO19 PPO protein (SEQ ID NO: 1) (protein)", "chain": "B1 chain with S165V, A167C, T360V", "modifications": "Synthetic_PPO of Thermosynechococcus elongatus PKUAC-SCTE542 (comprising GenBank No. CP032152.1)"}, "B6": {"name": "CyPPO19 A167C + F360I: variant of CyPPO19 PPO protein (SEQ ID NO: 1) (protein)", "chain": "B1 chain with S165V, A167C, T360I", "modifications": "Synthetic_PPO of Thermosynechococcus elongatus PKUAC-SCTE542 (comprising GenBank No. CP032152.1)"}, "B7": {"name": "CyPPO19 A167L + F360M: variant of CyPPO19 PPO protein (SEQ ID NO: 1) (protein)", "chain": "B1 chain with S165V, A167L, T360M", "modifications": "Synthetic_PPO of Thermosynechococcus elongatus PKUAC-SCTE542 (comprising GenBank No. CP032152.1)"}, "B8": {"name": "CyPPO19 A167C + F360M: variant of CyPPO19 PPO protein (SEQ ID NO: 1) (protein)", "chain": "B1 chain with S165V, A167C, T360M", "modifications": "Synthetic_PPO of Thermosynechococcus elongatus PKUAC-SCTE542 (comprising GenBank No. CP032152.1)"}, "B9": {"name": "CyPPO19 A167L + F360T: variant of CyPPO19 PPO protein (SEQ ID NO: 1) (protein)", "chain": "B1 chain with S165V, A167L", "modifications": "Synthetic_PPO of Thermosynechococcus elongatus PKUAC-SCTE542 (comprising GenBank No. CP032152.1)"}, "B10": {"name": "CyPPO19 A167I + F360L: variant of CyPPO19 PPO protein (SEQ ID NO: 1) (protein)", "chain": "B1 chain with S165V, A167I, T360L", "modifications": "Synthetic_PPO of Thermosynechococcus elongatus PKUAC-SCTE542 (comprising GenBank No. CP032152.1)"}}, "note": "Positions count from the first letter of the chain named. Names may count otherwise.", "data": [{"tested_on": "PPO-deficient BT3 E. coli (ΔPPO)", "assay": "PPO-inhibiting herbicide tolerance test of PPO variants in E. coli (growth on herbicide-containing LB agar)", "format": "cell-based", "conditions": "CyPPO19 variants in BT3 (ΔPPO) E. coli; LB agar with 0 to 2,000 μM herbicide, 37° C., dark, 16-20 hours", "summary_of_the_method": "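PPO-deficient BT3 E. coli expressing each variant from pET303 were diluted to OD600=0.5, then 10-fold serially, and spotted on LB-ampicillin agar with 0 to 2,000 μM herbicide. After 16-20 h at 37° C. in the dark, growth relative to wild type was scored from '−' (equivalent) to '+' per 10-fold resistance, max '+++++'.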", "values": [{"molecule": "B1", "tolerance level relative to wild type, Carfentrazone": "+ (‘+’ per each 10-fold resistance)", "tolerance level relative to wild type, Flumioxazin": "+++ (‘+’ per each 10-fold resistance)", "tolerance level relative to wild type, Fomesafen": "+ (‘+’ per each 10-fold resistance)", "tolerance level relative to wild type, Oxyfluorfen": "+ (‘+’ per each 10-fold resistance)", "tolerance level relative to wild type, Saflufenacil": "+++ (‘+’ per each 10-fold resistance)", "tolerance level relative to wild type, Sulfentrazone": "++ (‘+’ per each 10-fold resistance)", "tolerance level relative to wild type, Tiafenacil": "++++ (‘+’ per each 10-fold resistance)"}, {"molecule": "B2", "tolerance level relative to wild type, Carfentrazone": "+ (‘+’ per each 10-fold resistance)", "tolerance level relative to wild type, Flumioxazin": "++++ (‘+’ per each 10-fold resistance)", "tolerance level relative to wild type, Fomesafen": "+++ (‘+’ per each 10-fold resistance)", "tolerance level relative to wild type, Oxyfluorfen": "++ (‘+’ per each 10-fold resistance)", "tolerance level relative to wild type, Saflufenacil": "++++ (‘+’ per each 10-fold resistance)", "tolerance level relative to wild type, Sulfentrazone": "+ (‘+’ per each 10-fold resistance)", "tolerance level relative to wild type, Tiafenacil": "+++ (‘+’ per each 10-fold resistance)"}, {"molecule": "B3", "tolerance level relative to wild type, Carfentrazone": "+ (‘+’ per each 10-fold resistance)", "tolerance level relative to wild type, Flumioxazin": "++++ (‘+’ per each 10-fold resistance)", "tolerance level relative to wild type, Fomesafen": "+ (‘+’ per each 10-fold resistance)", "tolerance level relative to wild type, Oxyfluorfen": "+ (‘+’ per each 10-fold resistance)", "tolerance level relative to wild type, Saflufenacil": "++++ (‘+’ per each 10-fold resistance)", "tolerance level relative to wild type, Sulfentrazone": "++ (‘+’ per each 10-fold resistance)", "tolerance level relative to wild type, Tiafenacil": "++++ (‘+’ per each 10-fold resistance)"}, {"molecule": "B4", "tolerance level relative to wild type, Carfentrazone": "+ (‘+’ per each 10-fold resistance)", "tolerance level relative to wild type, Flumioxazin": "+++ (‘+’ per each 10-fold resistance)", "tolerance level relative to wild type, Fomesafen": "+ (‘+’ per each 10-fold resistance)", "tolerance level relative to wild type, Oxyfluorfen": "+ (‘+’ per each 10-fold resistance)", "tolerance level relative to wild type, Saflufenacil": "+++ (‘+’ per each 10-fold resistance)", "tolerance level relative to wild type, Sulfentrazone": "+ (‘+’ per each 10-fold resistance)", "tolerance level relative to wild type, Tiafenacil": "+++ (‘+’ per each 10-fold resistance)"}, {"molecule": "B5", "tolerance level relative to wild type, Carfentrazone": "+ (‘+’ per each 10-fold resistance)", "tolerance level relative to wild type, Flumioxazin": "+++ (‘+’ per each 10-fold resistance)", "tolerance level relative to wild type, Fomesafen": "+ (‘+’ per each 10-fold resistance)", "tolerance level relative to wild type, Oxyfluorfen": "+ (‘+’ per each 10-fold resistance)", "tolerance level relative to wild type, Saflufenacil": "+++ (‘+’ per each 10-fold resistance)", "tolerance level relative to wild type, Sulfentrazone": "+ (‘+’ per each 10-fold resistance)", "tolerance level relative to wild type, Tiafenacil": "++++ (‘+’ per each 10-fold resistance)"}, {"molecule": "B6", "tolerance level relative to wild type, Carfentrazone": "+ (‘+’ per each 10-fold resistance)", "tolerance level relative to wild type, Flumioxazin": "++++ (‘+’ per each 10-fold resistance)", "tolerance level relative to wild type, Fomesafen": "+ (‘+’ per each 10-fold resistance)", "tolerance level relative to wild type, Oxyfluorfen": "+ (‘+’ per each 10-fold resistance)", "tolerance level relative to wild type, Saflufenacil": "+++ (‘+’ per each 10-fold resistance)", "tolerance level relative to wild type, Sulfentrazone": "++ (‘+’ per each 10-fold resistance)", "tolerance level relative to wild type, Tiafenacil": "++++ (‘+’ per each 10-fold resistance)"}, {"molecule": "B7", "tolerance level relative to wild type, Carfentrazone": "+ (‘+’ per each 10-fold resistance)", "tolerance level relative to wild type, Flumioxazin": "++++ (‘+’ per each 10-fold resistance)", "tolerance level relative to wild type, Fomesafen": "++ (‘+’ per each 10-fold resistance)", "tolerance level relative to wild type, Oxyfluorfen": "+ (‘+’ per each 10-fold resistance)", "tolerance level relative to wild type, Saflufenacil": "++++ (‘+’ per each 10-fold resistance)", "tolerance level relative to wild type, Sulfentrazone": "++ (‘+’ per each 10-fold resistance)", "tolerance level relative to wild type, Tiafenacil": "++++ (‘+’ per each 10-fold resistance)"}, {"molecule": "B8", "tolerance level relative to wild type, Carfentrazone": "+ (‘+’ per each 10-fold resistance)", "tolerance level relative to wild type, Flumioxazin": "++++ (‘+’ per each 10-fold resistance)", "tolerance level relative to wild type, Fomesafen": "+ (‘+’ per each 10-fold resistance)", "tolerance level relative to wild type, Oxyfluorfen": "++ (‘+’ per each 10-fold resistance)", "tolerance level relative to wild type, Saflufenacil": "++++ (‘+’ per each 10-fold resistance)", "tolerance level relative to wild type, Sulfentrazone": "+ (‘+’ per each 10-fold resistance)", "tolerance level relative to wild type, Tiafenacil": "++++ (‘+’ per each 10-fold resistance)"}, {"molecule": "B9", "tolerance level relative to wild type, Carfentrazone": "+ (‘+’ per each 10-fold resistance)", "tolerance level relative to wild type, Flumioxazin": "+++ (‘+’ per each 10-fold resistance)", "tolerance level relative to wild type, Fomesafen": "+ (‘+’ per each 10-fold resistance)", "tolerance level relative to wild type, Oxyfluorfen": "+ (‘+’ per each 10-fold resistance)", "tolerance level relative to wild type, Saflufenacil": "+++ (‘+’ per each 10-fold resistance)", "tolerance level relative to wild type, Sulfentrazone": "++ (‘+’ per each 10-fold resistance)", "tolerance level relative to wild type, Tiafenacil": "+++ (‘+’ per each 10-fold resistance)"}, {"molecule": "B10", "tolerance level relative to wild type, Carfentrazone": "+ (‘+’ per each 10-fold resistance)", "tolerance level relative to wild type, Flumioxazin": "+++ (‘+’ per each 10-fold resistance)", "tolerance level relative to wild type, Fomesafen": "+ (‘+’ per each 10-fold resistance)", "tolerance level relative to wild type, Oxyfluorfen": "+ (‘+’ per each 10-fold resistance)", "tolerance level relative to wild type, Saflufenacil": "+++ (‘+’ per each 10-fold resistance)", "tolerance level relative to wild type, Sulfentrazone": "+ (‘+’ per each 10-fold resistance)", "tolerance level relative to wild type, Tiafenacil": "+++ (‘+’ per each 10-fold resistance)"}]}]}
